We go through 95 variants from the supplement of paper PMC10567573.

To fix the notation:
B1: DUSP5 (parent)
chain: YSEYPECCVDVKPISQEKIESERA
B2: NP_009172.2 (parent)
chain: LPALFTDLYSQEITAEEAREALP

Variants of B1 are the subject of the first data set. Briefly: protein stability index of a GFP-peptide fusion (GPS, HEK-293T) (PSI 1-6); higher = more stable. As to conditions: c terminus: a fixed tail appended.
Turning to YSEYPECCVDVKPISQEKFESERA, the protein stability index stood at 4.16.

Consider YSEYPECCVDVKPISQEPIESERA, for which the protein stability index turned out to be 3.84.

With YSEYPECCVDVKPISQEVIESERA, the protein stability index was found to be 4.16.

For the variant YSEYPECCVDVKPISQESIESERA, the protein stability index came out at 3.98.

Regarding YSEYPECCVDVKPISQEIIESERA, the protein stability index stood at 4.02.

For the variant YSEYPECCVDVKPISQEAIESERA, the protein stability index turned out to be 4.17.

As to YSEYPECCVDVKPISQETIESERA, the protein stability index was 4.52.

For YSEYPECCVDVKPISQEQIESERA, the protein stability index came out at 4.87.

As for YSEYPECCVDVKPISQEWIESERA, the protein stability index amounted to 3.73.

As to YSEYPECCVDVKPISQECIESERA, the protein stability index worked out at 3.1.

As to YSEYPECCVDVKPISQEEIESERA, the protein stability index turned out to be 4.55.

In the case of YSEYPECCVDVKPISQEGIESERA, the protein stability index was determined as 3.39.

Take YSEYPECCVDVKPISQELIESERA: the protein stability index stood at 3.68.

YSEYPECCVDVKPISQEMIESERA: the protein stability index was determined as 4.3.

On to YSEYPECCVDVKPISQENIESERA, for which the protein stability index stood at 4.19.

For YSEYPECCVDVKPISQEHIESERA, the protein stability index was found to be 4.41.

For YSEYPECCVDVKPISQEKIEQERA, the protein stability index came to 4.1.

On to YSEYPECCVDVKPISQEKIECERA, for which the protein stability index came to 3.96.

Regarding YSEYPECCVDVKPISQEKIEKERA, the protein stability index came to 4.49.

With YSEYPECCVDVKPISQEKIERERA, the protein stability index was found to be 3.22.

With YSEYPECCVDVKPISQEKIEFERA, the protein stability index is 4.11.

With YSEYPECCVDVKPISQEKIETERA, the protein stability index was 4.55.

Consider YSEYPECCVDVKPISQEKIEAERA, for which the protein stability index was 4.36.

YSEYPECCVDVKPISQEKIEVERA: the protein stability index is 4.36.

For YSEYPECCVDVKPISQEKIEIERA, the protein stability index was 3.42.

For the variant YSEYPECCVDVKPISQEKIEPERA, the protein stability index amounted to 4.29.

On to YSEYPECCVDVKPISQEKIEDERA, for which the protein stability index is 3.47.

As to YSEYPECCVDVKPISQEKIEEERA, the protein stability index is 4.71.

In the case of YSEYPECCVDVKPISQEKIEHERA, the protein stability index came to 4.58.

With YSEYPECCVDVKPISQEKIEMERA, the protein stability index amounted to 3.72.

For YSEYPECCVDVKPISQEKIEWERA, the protein stability index was 3.61.

For YSEYPECCVDVKPISQEKIEGERA, the protein stability index was found to be 3.8.

With YSEYPECCVDVKPISQEKIELERA, the protein stability index is 3.79.

Regarding YSEYPECCVDVKPISQEKIEYERA, the protein stability index was determined as 3.76.

On to YSEYPECCVDVKPISQEKIENERA, for which the protein stability index was 3.73.

On to YSEYPECCVDVKPISQEKIESEEA, for which the protein stability index worked out at 4.39.

With YSEYPECCVDVKPISQEKIESEHA, the protein stability index is 4.52.

For the variant YSEYPECCVDVKPISQEKIESEDA, the protein stability index was 4.41.

In the case of YSEYPECCVDVKPISQEKIESENA, the protein stability index amounted to 4.34.

For YSEYPECCVDVKPISQEKIESEIA, the protein stability index came to 4.24.

With YSEYPECCVDVKPISQEKIESEKA, the protein stability index turned out to be 4.65.

In the case of YSEYPECCVDVKPISQEKIESEYA, the protein stability index came to 3.71.

As to YSEYPECCVDVKPISQEKIESEAA, the protein stability index came to 4.23.

For the variant YSEYPECCVDVKPISQEKIESELA, the protein stability index was 4.18.

Regarding YSEYPECCVDVKPISQEKIESEMA, the protein stability index was found to be 3.91.

Take YSEYPECCVDVKPISQEKIESEWA: the protein stability index amounted to 3.41.

Regarding YSEYPECCVDVKPISQEKIESETA, the protein stability index was found to be 4.44.

For the variant YSEYPECCVDVKPISQEKIESESA, the protein stability index amounted to 4.38.

As to YSEYPECCVDVKPISQEKIESECA, the protein stability index was found to be 4.98.

For YSEYPECCVDVKPISQEKIESEQA, the protein stability index came out at 4.34.

Take YSEYPECCVDVKPISQEKIESEVA: the protein stability index was determined as 3.88.

Take YSEYPECCVDVKPISQEKIESEPA: the protein stability index was found to be 4.55.

Regarding YSEYPECCVDVKPISQEKIESEGA, the protein stability index was 4.42.

With YSEYPECCVDVKPISQEKIESEFA, the protein stability index amounted to 3.73.

Take YSEYPECCVDVKPISFEKIESERA: the protein stability index came out at 3.58.

YSEYPECCVDVKPISLEKIESERA: the protein stability index amounted to 4.19.

YSEYPECCVDVKPISAEKIESERA: the protein stability index stood at 3.74.

Take YSEYPECCVDVKPISGEKIESERA: the protein stability index is 4.06.

Consider YSEYPECCVDVKPISHEKIESERA, for which the protein stability index stood at 3.99.

For the variant YSEYPECCVDVKPISTEKIESERA, the protein stability index was 4.03.

As for YSEYPECCVDVKPISMEKIESERA, the protein stability index came out at 4.3.

On to YSEYPECCVDVKPISIEKIESERA, for which the protein stability index was 3.9.

YSEYPECCVDVKPISREKIESERA: the protein stability index was 4.34.

As for YSEYPECCVDVKPISYEKIESERA, the protein stability index was found to be 3.37.

On to YSEYPECCVDVKPISEEKIESERA, for which the protein stability index amounted to 4.33.

For YSEYPECCVDVKPISPEKIESERA, the protein stability index was determined as 4.38.

Consider YSEYPECCVDVKPISWEKIESERA, for which the protein stability index came out at 2.83.

YSEYPECCVDVKPISVEKIESERA: the protein stability index was 3.41.

Consider YSEYPECCVDVKPISDEKIESERA, for which the protein stability index came to 4.67.

In the case of YSEYPECCVDVKPISKEKIESERA, the protein stability index was 3.85.

In the case of YSEYPECCVDVKPISSEKIESERA, the protein stability index was 3.85.

As to YSEYPECCVDVKPISNEKIESERA, the protein stability index amounted to 4.59.

Variants of B2 are the subject of a further data set. The description is as above. As to conditions: c terminus: native.
For the variant LPALFQDLYSQEITAEEAREALP, the protein stability index came to 2.18.

Turning to LPALFCDLYSQEITAEEAREALP, the protein stability index was 3.02.

Take LPALFVDLYSQEITAEEAREALP: the protein stability index was found to be 2.24.

With LPALFTDLYSQEITAEEARIALP, the protein stability index is 2.32.

For LPALFTDLYSQEITPEEAREALP, the protein stability index was 3.05.

Regarding LPALFTDLYSQEIQAEEAREALP, the protein stability index was 2.27.

On to LCALFTDLYSQEITAEEAREALP, for which the protein stability index worked out at 2.64.

Turning to LPALFTDLYSWEITAEEAREALP, the protein stability index was 2.63.

LPALFTDLYSQEITAEEAREALS: the protein stability index was determined as 4.8.

With LPALFTDLLSQEITAEEAREALP, the protein stability index is 2.39.

With LPHLFTDLYSQEITAEEAREALP, the protein stability index is 2.81.

Consider LPFLFTDLYSQEITAEEAREALP, for which the protein stability index is 2.76.

LPSLFTDLYSQEITAEEAREALP: the protein stability index was 2.74.

As to LPALFTDLYSQEITAPEAREALP, the protein stability index came to 3.16.

As to LPALFTDLYSQEITAQEAREALP, the protein stability index turned out to be 2.64.

For the variant PPALFTDLYSQEITAEEAREALP, the protein stability index came to 2.49.

GPALFTDLYSQEITAEEAREALP: the protein stability index worked out at 2.77.

Regarding LPAHFTDLYSQEITAEEAREALP, the protein stability index turned out to be 3.54.

As to LPAQFTDLYSQEITAEEAREALP, the protein stability index stood at 3.62.

Consider LPALFTDLYSQEITAEEARERLP, for which the protein stability index was found to be 2.02.

In the case of LPALSTDLYSQEITAEEAREALP, the protein stability index stood at 5.37.

For the variant LPALFTDLYSQEITAEEAREAFP, the protein stability index turned out to be 3.49.

As to LPALFTDLYSQEITAESAREALP, the protein stability index was 2.33.
